Consider 50 sequences from the domain aggregation screens of Martell et al. (2025).

A short description of this data set: soluble fraction after stress (log2 fold change); higher = more stays soluble; pooled small domains, quantitative proteomics. The conditions noted are these: stress: 50 degC. In a few lines: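 Pooled custom libraries of small protein domains were each held under stress at 50°C. The read-out, high-throughput quantitative proteomics, tracked how much of each protein stayed soluble. This is reported as a base-two log fold change used to indicate aggregation propensity. Higher values mean more protein remains in solution.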
In the case of “HMEYKTGIINTNKVRVRNAADADATVIFAINKDIKVKILAEENGFYKIGVSVKNRGNGEDLIGFVKKELIT”, the “soluble fraction (log2)” value was -0.631. Next, “HMDNWYIAFNSFLSQNKLTAKNVSELTGLSKPTIDSYKQGKRKPTDENMQIIKDKLGFNISEILYN”: -0.265; “HMSVIKERLTEFLTYKGIGQIKFAEAAGLSRGFVNVLGDGISSKSLNKISQAFPELNTLWLTTGEGEML”: -1.91; “HMDPTEPLFVGVVTAEPYLNIREYPTTQSKDLGDLFPGMHVNVYEIVPNWYRIDDGWVASAWVKRDWGGG”: -1.2. For “HMTESFEFTMNDLVQNNLIMGSGAKERRIAVGEALGIGYTNAKQFLSRLNHYGITRKEFDDEIEKVNQN”, the “soluble fraction (log2)” value is -0.158. The value for “HMVLQHHTATKALSYHTSASASAAVKGSFARGDSVQVVQGGSQTADGAKWHKVKVGSSYYYAAAEHLTP” was at least 0.62; that for “HMSENDTILAKFVSVMGNKNLELVIFPDIAYLKGQVSNPEDKTKAETVAQSLLGGKPLVSLIEFE” was 0.218; that for “HMIHDSAESVVFPFGKYKGYTLAHVIREHPHYTYWIRDNADFSPLWREAVSLALQNRDIGHLNLPHVK” was -0.416. Regarding “HMAKDEYGLTSNQRAFADEYIRNKGNATQAYLFAYPHIKKENTAAVNASRLLRNAKVSKYIADRTKEIL”, the “soluble fraction (log2)” value is 0.287. “HMGSLQPLLLAAIDALQTHIRSGLPFRVEERLAELDQFRTELQNGSVPPQRGVNRLWAFYEDEFRL”: the “soluble fraction (log2)” value was -0.798. The value for “HMKTYSEAQLKIALESLIENGKKQGYLTFQEINEILPDGIINTQDLKVIISILKETGIVVAKEKPEINIDV” was 0.0784. The value for “HMTLGARTLAAIQSLPKVQQAVFTMKHFEGLKYREISQITGTSEGALKASYHIALEKIKAFLREK” was -2.53; that for “HMNSFKIYPNPSSREVVRFNQAQDVKVYDTLGKLILSAKNTSAIDTKSFNTGIYFIKTANGLTKKLIV” was -0.695.

As to “HMESSNLESQLKKGIVPNLNGLSAKDALFLLENSGFNVKLYGMGSVKKQSLEAGKKYNKGDKITLIL”, the “soluble fraction (log2)” value is 0.112. Next, “HMILKNVPSNLVNQRLDKVATVLFQTYSRTQIKKWILEGRLLVNGEISNPKDLVNENDEIEINPI”: -1.6; “HMNILNYIIENENQEVRVDKFLSDTIEDMSRSSVASIIEDGGLLVNDKLQNKKYKLKIGDKVQFTVPDPV”: 0.113; “HMTRQEFIRKLQEALNGKLDAATIQDHLKFYDDYIIEEMRKGKSEQEVLELLGDPWAIAKTIVDAS”: 0.349. Next, “HMTALSAREHEVLQLITRGYTADEIAAMLQISRHTALTYVRRIYSKLKVNSKAEAIFEVRQR”: -0.577; “HMGFSERLAQAMSHAGYTQGGLAKAVGMAQSSVNKLLNNANSSRKTVEIASVLGVRPEWLSTGEGDML”: 0.00207. Next, “HMALLSNEDIMFNLEFNRDLAVASNDGVSRDEFLRNKYGISEEEYNMLRARYGDGLNAARIKEYVGQRD”: 0.104; “HMIDKIRYPELIMKLAHQQGGTIKRRDVEQLLHLQTKQAYRELSKLVDAGELVSVGRGPGAHYEVS”: 0.042.

As to “HMSAEVMLRRLIDENDPSSENARYILAVMLERKKILAPVDVKNEKKSKMLFYEHQKTGEAFIVRDP”, the “soluble fraction (log2)” value is -0.267.

With “HMIGGASVFKQFLPLADKMLLTLIHSEFEGDTYFPVFSEKEWLLQESSSLLSATGYQLSFQTYIR”, the “soluble fraction (log2)” value was determined as 0.0328. Next, “HMTVDTSELEEMIDDLIKEHPNEWERYSSGEKKVQGFFVGQVMKATSGQADGKAINQILSKRVKS”: 0.354. “HMWKQISSEAELLPAVRSVIQANPGEAEKLRNGEMAPLEFLTGLVMKKTNGMAVPQIVKTLIKKELKI”: the “soluble fraction (log2)” value stood at 0.00479. The value for “HMDDIVFPNPTKNQINVSIDGLKNIYNLSGKLLISTNDKIIDVSILKAGVYFINTNEQFYKFVK” was -1.3. Next, “HMTYFIADLIGLQVYTDSGELLGKVDDIYNSGSADIYVVKDELGKQILLPGIKDVIKQIDVDNEKIIVHLI”: -0.885.

For the sequence “HMTERIRLHDDIGSWVEKHGATRSALIPVLQGIQRSYNEISEYAMQEVADRLDIHPVEVYSVVSFYSF”, the “soluble fraction (log2)” value is -0.0419. The value for “HMSEEVKSQPISILDLSTRASNGLKNEGIETIGELVKYSEDELLGLDKFGQNSLKEIKKKLEEIGLTLKEH” was -0.0419; that for “HMNSLGYSDFVVDVQNERVASVVIEGLIINGERRDGTKFRTVLPTIGDQRLMDDLINHNVKVLARE” was 0.236; that for “HMPTITSPMVGTFYRAPSPGAAPFIEVGDTVKKGQVIGIIEAMKLLNEVEADKDGVVQAFAAENGEL” was 0.262. Consider “HMETSLVIQIDGAVNSPGIYQVTPGTRIFEALELAGGVREDAQTEALNLALPVYDGQRISIPSSFA”, for which the “soluble fraction (log2)” value was determined as 0.0796. Next, “HMITMWYYKKDGNIIGPASARKIASMRELGIITDSTPVSRKRNAKNWETFGGLSEKINLESSQWD”: -1.9; “HMNTKLSYSDLIEKIEAGQVEKVELDAGGSSAIVKLKNDNIEKRVNVPSIDNLMENLQDNMKTGNISVTE”: 0.42. Next, “HMKTMEQSYIGRKIILDENVEDSALIKFEGIYWTFKSVSGPLKKGTEVEIIGIEGNKILIKNK”: -0.198; “HMEDSEYDRLLAEIDEGIRKAIETLEPVELSPQNARVRRIQHQIIEKYQLHSDSVGEEPYRRVRIL”: -0.593. For “HMLAQYPGQVFSKEQIYNQVWKEPYYGVEDNVMSLIRRIRKKIEPDPSRPIYILTVWGIGYKFNN”, the “soluble fraction (log2)” value is -0.197. Next, “HMVDTEVFSRLLRKVLAGDVTSAIRILEELIVGGRELSQFVGDFTWYMRNLLLVKTSDNPEEA”: -0.397; “HMRDKTMLGNVIRTRRKKMNLTLEELSKQVGITSGGLSQIERGLVDPSLSVLRRISRALNLPMNVMFSE”: -0.281. Next, “HMGALARLLASVEQELGVTRDRMTRTQKQEAVTLLNEWGAFTLRKSVEDVAEALGVSRFTVYNYLERAEA”: -2.74; “HMQTGYHVRITASTLNVRRDHSASSAVATQVRRGEVYTIVDEYNNGGTLWGKLKSGAGWIALKYTQS”: -1.81. The value for “HMGITRQQALQQINQSASPKKILNASLGKRGSEFVWDIGYLSKSGKLNYVTYSFRSGEQLNAIKN” was -1.02; that for “HMKGLDAAVVDLFKSKGASIVFAGNRLSLSGEVADQATKDELLAKAKAILASLGASVSLDDKLMVKGAKAS” was 0.0298; that for “HMQGWREWDYSADLYINARVGGKIEPTENSPISRVYELDEPVSVVAFTSTRYFKLSSGDYIFAEYLSAQKV” was -1.2.

“HMETLEDHRKKTRQQLFDALSHLLQTSTFESLTMAKIAEEAGVGRTAVYNHFQDKEALLLAFITYETGQ”: the “soluble fraction (log2)” value was -1.05. Consider “HMSSFSESFHKALNNLDDKHKSVFSLRHFEGFSMKEIAETLNINEGTVKSRLFYATKTLAGALKEF”, for which the “soluble fraction (log2)” value was -2.74. Next, “HMYSLGPKERSIVSFIANRPGSRSGQIAKSLQIPLPTIKRILNGLVENKVIARHGIGAGTNYVVEDQA”: -0.594. The value for “HMHMHTADDFKQLAKHTSNGRLRTRYLALYHFKKGETRTQIAAYLGVARGSVNTWVSNYLAYGLEGLQS” was -2.56; that for “HMASRSQTEIMHLLSSGLPKHELVTALQSLLGISKPTAYKYLSQDVSIAYDHMVKILEYPPFQRVLYQ” was -1.34; that for “HMSSTAIQAMIRRLIDGEDPRKPLSDARLAETLKASGVPVARRTVAKYRESMSIPSSQDRLRI” was -0.156.
